In patent US20150086555A1:

B1: TCN-538 (3206_O17) (antibody, V domains shown)
VH: QITLKESGPTLVKPTQTLTLTCVFSGFSLSITGVRVGWIRQPPGKALEWLALISWDDEKHYSPSLQSRLTITKDTSKNQVVLTMTNLDPVDTATYYCARSTDRGHVLRYFGWMLPGDAFDVWGQGTMVTVSS
VL: DIVMTQSPDFLPVSLGERATINCKSSQRVLYSSNNKNYLAWYQLKPGQPPKLIIYWASTRESGVPDRFSGSGSGTEFTLTISSLQAEDVAVYYCQQYYSRPYTFGQGTKLEIK
B2: TCN-555 (5246_L16) (antibody, V domains shown)
VH: QVQLVQSGAEVKRPGSSVKVSCTASGGIFRKNAISWVRQAPGQGLEWMGGIIAVFNTANYAQKFQNRVKITADESGNTAYMELSSLTSDDTAVYYCASHPKYFYGSGSYPDFWGQGTLVTVSS
VL: QSALTQPRSVSGSPGQSITISCTGGSSDIGASNSVSWYQQHPGKAPKLVIFDVTERPSGVPHRFSGSKSGNTASLTVSGLQPDDEADYFCCAYGGKYLVVFGGGTKVTVL
B3: TCN-552 (5249_I23) (antibody, V domains shown)
VH: QVQVVQSGAEVKKPGSSVRVSCQASGGTFMNYAIIWVRRAPGQGLEWMGGIIPVFPTPNYAQMFQGRVTISTDESRSTSFLELTNLRYEDTAVYYCARRIYHGGNSGFDFWGQGTLVTVSS
VL: EIVLTQSPATLSLSPGERATLSCRASQSVGNYLAWYQQKPGQAPRLLIYDSSNRAPGIPARFSGSGSGTDFTLTISSLAPEDFAVYYCQQRSKWPPMYSFGHGTKLEIK
B4: TCN-521 (3280_D18) (antibody, V domains shown)
VH: EVQLVQSGGGLVQPGGSLRLACVVSGFTVTSNYITWVRQAPGKGLEWVSVIYSHGRAYYSASVNGRFTISRHTSKNTVYLEMNSLRPEDTAVYYCAGGGLVGGYDEYFFDYWGQGTLATVSS
VL: ETVLTQSPGTLSLTPGERATLSCRVGQSVSGSHLAWYQQKPGQAPRLLIYGASSRATGIPDRFGGSVSGTDFTLTISRLEPEDSAVYYCQQYGDSRYTFGQGTKLEIK
B5: TCN-553 (5261_C18) (antibody, V domains shown)
VH: QVQVVQSGTEVKKPGSSVKVSCQTSGGRFMSYAITWVRQAPGQGLEWMGGIVPVFGTANYAQKFQGRVTITTDDSTRTAYMELSSLRSEDTAVYYCGFRYGSGYGFDSWGQGTLVTVSS
VL: EIVLTQSPGTLSLSPGERATLSCRASQSVSSSYLAWYQKKPGQAPRLLIYGASTRATGIPDRFTGSGSGTDFTLSISRLEPEDFAVYYCQHFGTSVFTFGGGTKVEIK
B6: TCN-551 (5243_D01) (antibody, V domains shown)
VH: EVQLVQSGSEVKKPGESLKISCKGSGYSFSNYWIGWVRHMPGKGLEWMGIIYPGDSDTRYSPSFQGQVTMSADKSSSTVYLQWSSLKASDTAIYYCARRGGHSFGYGSGGDTHSEFDSWGQGTLVTVSS
VL: QSVLTQSPSVSAAPGQKVTISCSGSDSNIGDYFVCWYQHLPGKPPQLLIYENNKRPSGIPDRFSGSKSGTSATLGITGIQTGDEADYYCATWDGSLSAWVFGGGTKLTVL
B7: TCN-537 (3194_D21) (antibody, V domains shown)
VH: QVQLQQWGSGLLKPSETLSLTCAVYGGSFRDDYWTWIRQPPGKGLEWIGEINHSGRTNYNPSLKSRVTISVDTSLKQFSLKVISVTAADTAVYYCARGTSHVSRYFDWLPPTNWFDPWGQGTQVTVSS
VL: DIVLTQSPGTLSLSPGERATLSCRASQSVSSSYLAWYQQKPGQAPRLVMYGAATRATGIPDRFSGSGSGPDFTLTISRLEPEDFAMYYCQQYGNSPITFGQGTRLEIK
B8: TCN-539 (5056_A08) (antibody, V domains shown)
VH: QVQLVESGGGVVQPGRSLRLSCAASEITFITYAMHWVRQAPGKGLEWVALISDDGSNKFYADSVKGRFTISRDNSKNTLYLQMNSLRAEDTAAYYCAREGVYFDSGTYRGYFDYWGQETLVTVSS
VL: EIVLTQSPATLSLSPGERATLSCRASQSVSSYLAWYQQKPGQAPRLLIYDASNRATGIPARFSGSGSGTDFTLTISSLEPEDFAVYYCQQRSHWPPITFGQGTRLEIK
B9: TCN-557 (5081_A04) (antibody, V domains shown)
VH: QVQLVQSGAEVKKPGASVKVSCKASGHTFTGYYIHWVRQAPGQGLEWMGWINPDSGATSSAQNFQGRVTMTGDTSSSTAYMELSRLSFDDTAVYYCARVLFTSPFDFWGEGTLVTVSS
VL: QAVVTQEPSLAVSPGGTVTLTCGSSTGAVTRGHYPYWFQQKPGQAPRALIYDSAGNRHSWTPARFSGSLLGGKAALTLSGAQPEDEAEYYCLLSYSGVWVFGGGTKLTVL
B10: TCN-550 (5096_F06) (antibody, V domains shown)
VH: QVQLQESGPGLVKPSETLSLTCTVSGASINSHYWSWIRQPPGKGLEWIGYVYYSGSTTYNPSLKSRVTLSVDTSKNQFSLNLSSVTAADTAFYYCARHPYDVLTGSGDWFDPWGQGTLVTVSS
VL: SYVLTQAPSVSVAPGQTARITCGGNAIGSKKVHWYQHKAGQAPVLVVYDDTDRPSGIPERFSGSNSWSTATLTINRVEAGDEADYYCQVWDFTIDHVVFGGGTKLTVL
B11: TCN-541 (5062_M11) (antibody, V domains shown)
VH: QVQLQESGPGLVKPSETLSLTCTVSGGSINSYYWNWIRQPPGKGLEWIGYIYHSGSTNYNPSLKSRVTISVDTSKNQFSLQLSSVTAADTAVYYCARLRTDYGDPDSVYYYGMDVWGQGTTVTVSS
VL: SYELTQPPSVSVSPGQTARITCSGDALPKQNAYWYQQKPGQAPVLLIYKDSERPSGIPERFSGSSSGTTVTLTISGVQAEDEADYYCQSADSSGTSWVFGGGTKLTVL
B12: TCN-545 (5082_I15) (antibody, V domains shown)
VH: QVQLQQWGAGLLKPSETLSLSCAVFGGSFSDYYWTWIRQPPGKGLEWIGEIKHSGRTNYNPSLESRVTISVDTSKNQFSLKLSSVTAADTAIYYCARGTDPDTEGYCRSGSCSAFDFWGQGTLVTVSS
VL: EIVLTQSPGTLSLSPGERATLSCRASHFVNYRSLAWYQQTPGQVPRLLIYGASTRATGIPDRFSGSGSGTDFTLTISRLEPEDFAVYFCQQYGGSPRYTFGQGTRLEIK
B13: TCN-528 (5087_P17) (antibody, V domains shown)
VH: QVQLVQSGSEVKKPGASVKVSCKASGYTFTNYDINWIRQAPGQGLEWMGWINPNSGTTGSAQRFQGRVTITVDTSITTVYMELSSLRSDDTAIYYCARGRELLRLQHFLTDSQSERRDCFDPWGQGTLVTVSS
VL: DIQMTQSPSSLSASVGDRVTITCRANQDIGIYLNWYQQNPGKVPKLLLHGASSLQGGVPSRFSASGSGTDFTLTIHSLQPEDLATYYCQQSRRLPYTFGQGTRVELK
B14: TCN-542 (5079_A16) (antibody, V domains shown)
VH: QVQLQESGPGLVKPSQTLSLTCTVSGGSISSGNYYWNWVRQHPGKGLEWIGYIYYRGSTFYNPSLKSRVTISIDTSKNQFSLRLSSVTAADTAVYYCAKDTRSSLDNYQYGMDVWGQGTTVTVSS
VL: QTVVTQEPSLTVSPGGTVTLTCASSTGAVTSSYFPNWFQQKPGQAPRPLIYSTTIRHSWTPARFSGSLLGGKAALTLSGVQPEDEADYYCLLYSGGDPVAFGGGTKLTVL
B15: TCN-546 (5089_L08) (antibody, V domains shown)
VH: QVQLQQWGAGLLKPSETLSLTCGVYGGSLSDYYWSWIRQPPGKGLEWIGEINHSGGTNYNPSLKRRVTISVDTSKKQFSLKMNSVTAADTAVYYCARGTDPDTEVYCRAGNCAAFDFWGQGTLVTVSS
VL: EIVLTQSPGTLSLSPGERATLSCRASHFVIGRAVAWYQQKPGQAPRLLIYGASSRATGIPDRFSGSGSGTDFTLTISRLETEDFAVFYCQHYGSSPRYAFGQGTKLEIK
B16: TCN-522 (3212_I12) (antibody, V domains shown)
VH: QVQLQQWGAGLLKPSETLSLTCTVSGGSLTDYSWNWIRQPPGKGLEWIGDTLHNGYTNYNPSLRGRVSISIDTSKNQVSLRLTSVTAADTALYYCARGSGGYGGFDYFGKLRTWDFWGQGTLVTVSS
VL: DIQLTQSPSSLSASVGDRVTITCRASQGIRNDLGWYQQKPGNAPKRLIFGASSLQSGVPSRFSGSGSGTEFTLTISSLQPEDFATYYCLQHNSYPYTFGQGTKLEIK
B17: TCN-527 (5086_C06) (antibody, V domains shown)
VH: QVQLQESGPGLVKPSETLSLNCAVSGGSISNYYWSWIRQPPGKGLEWIGYISYNGRPKYNPSLTSRVTISVDTSKDQFSLELRSVTAADTALYYCARETRFGELLSPYDAFEIWGQGTMVTVSS
VL: DIQMTQSPSSLSASVGDRVTMTCRASQNIRSYLNWYQQRPGTAPKLLIYAASTLHSGVPSRFSGGGSGTDFTLTINNLQPEDFASYYCQQSYDNPQTFGQGTKVEIK
B18: TCN-543 (5081_G23) (antibody, V domains shown)
VH: QVHLVQSGAEVRKPGDSVKVSCKTSGYTFSTYPVAWVRQVPGQGLEWMGWISTYNGNTNFAQNFQGRVTLTTDTTTNTAYMEVRSLKFDDTAVYYCARVEGSYRDFWNNQNRFDPWGQGTLVTVSS
VL: SYVLTQPPSVSVAPGQTARISCGGSNIGGKSVHWYQQKPGQAPVLVVYDDSGRPSGIPERFSGSNSGDTATLTISRVEAGDEADYFCQVWDNFGGVFGTGTKVTVL

What follows are binders tested against T1, recombinant soluble homotrimeric HA of A/common magpie/Hong Kong/5052/07 (H5N1) (Influenza A virus A/common magpie/Hong Kong/5052/2007(H5N1)) (assay: HA microarray, BCC supernatant). Details: remark: other sources report otherwise.

Row | Binder | Trimeric HA Binding: RLU [RLU]
1 | B1 | 18700
2 | B2 | 16100
3 | B3 | 42200
4 | B4 | 13500
5 | B5 | 26000
6 | B6 | 45700
7 | B7 | 18700
8 | B8 | 3960

What follows are binders tested against recombinant soluble homotrimeric HA, A/common magpie/Hong Kong/5052/07 H5N1 (Influenza A virus A/common magpie/Hong Kong/5052/2007(H5N1)) (assay: microarray, transfection SN IgG, trimeric HA). Details: remark: other sources report otherwise.

Row | Binder | Trimeric HA Binding: RLU [RLU]
9 | B2 | 33600
10 | B3 | 34600
11 | B5 | 39200
12 | B9 | 54900
13 | B10 | 993

Each binder was assayed against recombinant homotrimeric HA A/common magpie/Hong Kong/5052/07 H5N1 (Influenza A virus A/common magpie/Hong Kong/5052/2007(H5N1)) (assay: protein microarray, purified IgG, trimeric HA). Details: remark: other sources report otherwise.

Row | Binder | Trimeric HA Binding: RLU [RLU]
14 | B11 | 728
15 | B12 | 804
16 | B13 | 25500
17 | B14 | 1540
18 | B1 | 5140
19 | B15 | 810
20 | B2 | 17000
21 | B16 | 15100
22 | B17 | 24600
23 | B3 | 19400
24 | B5 | 22800
25 | B6 | 907
26 | B9 | 23700
27 | B10 | 753
28 | B7 | 810
29 | B18 | 679

What follows are binders tested against T1, recombinant soluble homotrimeric HA of … (assay: trimeric HA microarray, transfection supernatant set 2). Details: remark: other sources report otherwise.

Row | Binder | Trimeric HA Binding: RLU [RLU]
30 | B13 | 45300
31 | B16 | 21400
32 | B17 | 43800

These binders were tested against T1, recombinant soluble homotrimeric HA of … (assay: trimeric HA microarray, transfection supernatant set 5). Details: remark: other sources report otherwise.

Row | Binder | Trimeric HA Binding: RLU [RLU]
33 | B12 | 1390
34 | B1 | 3140
35 | B15 | 1920
36 | B7 | 2070
37 | B18 | 1070
